Test results: publication PMC4437517 (Proteins, 2008)

Columns and labels:
crystal structure = target: the molecule itself; test: crystal structure
SEC = target: the molecule itself; test: SEC

B1: protein product of the Arabidopsis thaliana gene locus At1g05000 (enzyme, UniProt Q9ZVN4 1-215, looked up)
chain: SKLVEKTTTTEQDNGEDFCRTIIEVSEVNRNVFQAPGGEADPFRVVSGEELHLIPPLNFSMVDNGIFRSGFPDSANFSFLQTLGLRSIIYLCPEPYPESNLQFLKSNGIRLFQFGIEGNKEPFVNIPDHKIRMALKVLLDEKNHPVLIHCKRGKHRTGCLVGCLRKLQKWCLTSIFDEYQRFAAAKARVSDQRFMEIFDVSSFSHIPMSFSCSIR
modifications: selenomethionine-labeled
With B1 the “stoichiometry N” value (crystal structure) was 6 and the “stoichiometry N” value (SEC) was 2.
